# Reference: patent US20130209355A1 (Genmab, published 2013)
# Experiments:
# Human recombinant CD38 = Human recombinant CD38 (human, UniProt P28907 43-300, limits assumed); assay: cell-based or functional assay
# [1] = target: T1, HA-CD38 (N-terminal HA tag, extracellular domain of human CD38), wild type (human, UniProt P28907 45-300); assay: ELISA, HA-CD38 captured by anti-HA antibody
# T1 construct: Used as culture supernatant of HEK-293F cells, captured by anti-HA antibody; also called wild type (WT) CD38; pEE13.4HACD38
# [2] = target: T2, human CD38 on CD38-transfected CHO cells (CHO-CD38 cells) (human, UniProt P28907 1-300); assay: flow cytometry on CHO-CD38 cells, anti-human IgG-FITC
# T2 construct: The construct used to transfect the CHO cells is not described; also called CHO cells transfected with CD38; cellular expressed CD38
# CD38 on Daudi-luc cells = target: T3, CD38 on Daudi-luc cells (UniProt P28907 1-300); assay: flow cytometry on Daudi-luc cells, anti-human IgG-FITC
# T3 construct: whole, on cells; also called Daudi cells
pmol cADPR/min (reverse cyclase reaction) (pmol cADPR/min) (Human recombinant CD38),binding result [1],binding result [2],binding result (CD38 on Daudi-luc cells),"IC50 of inhibition of NAADP production (base-exchange activity, HPLC) (Human recombinant CD38) [µg/mL]",Molecule
4.3,,,,,HuMab-KLH (antibody)
,binds,binds,binds,,"anti-CD38 antibody 025 (antibody, human IgG1, V domains shown) VH: QVQLVQSGAEVKKPGSSVKVSCKAFGGTFSSYAISWVRQAPGQGLEWMGRIIRFLGKANHAQKFQGRVTLTADKSTNTAYMELSSLRSEDTAVYYCAGEPGDRDPDAVDIWGQGTMVTVSS VL: DIQMTQSPSSLSASVGDRVTITCRASQGIRSWLAWYQQKPEKAPKSLIYAASSLQSGVPSRFSGSGSGTDFTLTISSLQPEDFATYYCQQYNSYPLTFGGGTKVEIK"
,binds,binds,binds,,"anti-CD38 antibody 026 (antibody, human IgG1, V domains shown, also called -057) VH: QVQLVQSGAEVKKPGSSVKVSCKAFGGTFSSYAISWVRQAPGQGLEWMGRIIRFLGKTNHAQKFQGRVTLTADKSTNTAYMELSSLRSEDTAVYYCAGEPGDRDPDAVDIWGQGTMVTVSS VL: DIQMTQSPSSLSASVGDRVTITCRASQGIRSWLAWYQQKPEKAPKSLIYAASSLQSGVPSRFSGSGSGTDFTLTISSLQPEDFATYYCQQYNSYPLTFGGGTKVEIK"
,binds,binds,binds,,"anti-CD38 antibody 049 (antibody, human IgG1, V domains shown) VH: QVQLVQSGAEVMKPGSSVKVSCKASGGTFRSYAISWVRQAPGQGLEWMGRIIVFLGKTNYAQKFQGRVTLTADKSTTTAYMELSSLRSEDTAVYYCTGEPGARDPDAFDIWGQGTMVTVSS VL: DIQMTQSPSSLSASVGDRVTITCRASQGIRSWLAWYQQKPEKAPKSLIYAASSLQSGVPSRFSGSGSGTDFTLTISSLQPEDFATYYCQQYNNYPLTFGGGTKVEIK"
,,,,0.14,"anti-CD38 antibody 028 (antibody, human IgG1, V domains shown) VH: QVQLVQSGAEVKKPGSSVKVSCKAFGGTFSSYAISWVRQAPGQGLEWMGRIIRFLGIANYAQKFQGRVTLIADKSTNTAYMELSSLRSEDTAVYYCAGEPGERDPDAVDIWGQGTMVTVSS VL: DIQMTQSPSSLSASVGDRVTITCRASQGIRSWLAWYQQKPEKAPKSLIYAASSLQSGVPSRFSGSGSGTDFTLTISSLQPEDFATYYCQQYNSYPLTFGGGTKVEIK"
,,binds,binds,,"anti-CD38 antibody 056 (antibody, human IgG1, V domains shown) VH: QVQLVQSGAEVKKPGSSVKVSCKPSGGTFRSYAISWVRQAPGQGLEWMGRIIVFLGKVNYAQRFQGRVTLTADKSTTTAYMELSSLRSEDTAVYYCTGEPGARDPDAFDIWGQGTMVTVSS VL: DIQMTQSPSSLSASVGDRVTITCRASQGIRSWLAWYQQKPEKAPKSLIYAASSLQSGVPSRFSGSGSGTDFTLTISSLQPEDFATYYCQQYNNYPLTFGGGTKVEIK"
